From paper PMC8007706, “Structural and functional analysis of LIM domain-dependent recruitment of paxillin to αvβ3 integrin-positive focal adhesions” (Communications Biology, 2021)

Columns and labels:
[1] = biological target: T1, His-tagged talin-head (talin 1–405 aa), C-tagged version (UniProt P26039 1-405); assay: BLI; Octet RED384; biotinylated MBP-LIMs immobilised on streptavidin sensor (biocytin quench); His-tagged talin head in solution at 20, 80, 320, 1250 and 5000 nM; PBS with 1% BSA, 0.1% Tween-20, 0.05% sodium azide; 27 °C, 1000 rpm; biotinylated free MBP sensor subtracted; apparent affinity; details: both partners purified
T1 construct: talin 1, residues 1–405 (head domain); also called TH; C-tagged talin; not shown: His tag, C-terminal, kept
T1 sequence (P26039 1-405): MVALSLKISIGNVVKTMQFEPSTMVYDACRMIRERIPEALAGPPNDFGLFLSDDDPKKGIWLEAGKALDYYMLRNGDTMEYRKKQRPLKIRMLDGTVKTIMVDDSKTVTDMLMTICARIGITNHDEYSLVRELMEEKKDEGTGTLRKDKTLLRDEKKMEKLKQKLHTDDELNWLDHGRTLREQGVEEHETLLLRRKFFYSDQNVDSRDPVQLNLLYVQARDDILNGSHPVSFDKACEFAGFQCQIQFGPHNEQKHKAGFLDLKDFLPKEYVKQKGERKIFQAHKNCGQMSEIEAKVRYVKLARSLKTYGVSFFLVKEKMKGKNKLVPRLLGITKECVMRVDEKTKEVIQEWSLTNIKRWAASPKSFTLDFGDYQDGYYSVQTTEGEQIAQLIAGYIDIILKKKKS

[2] = biological target: T2, His-tagged talin-head (talin 1–405 aa), N-tagged version (UniProt P26039 1-405); assay: as above; details: both partners purified
T2 construct: talin 1, residues 1–405 (head domain); also called TH; N-tagged talin; not shown: His tag, N-terminal, kept
T2 sequence (P26039 1-405): as above

Kd [1]: 770 nM
Kd [2]: 720 nM
B1: biotinylated MBP-LIMs (domain or fragment, human, UniProt P49023-2 317-557, looked up)
chain: ATVAKGVCGACKKPIAGQVVTAMGKTWHPEHFVCTHCQEEIGSRNFFERDGQPYCEKDYHNLFSPRCYYCNGPILDKVVTALDRTWHPEHFFCAQCGAFFGPEGFHEKDGKAYCRKDYFDMFAPKCGGCARAILENYISALNTLWHPECFVCRECFTPFVNGSFFEHDGQPYCEVHYHERRGSLCSGCQKPITGRCITAMAKKFHPEHFVCAFCLKQLNKGTFKEQNDKPYCQNCFLKLFC
modifications: biotin (EZ-Link NHS-PEG4-Biotin)
notes: paxillin LIM1-LIM4, human paxillin α; limits as told for the LIMs construct (from residue 317), the MBP constructs being 'analogously produced'; numbered according to P49023-2; also called MBP-tagged and biotinylated LIM domains (LIMs)
